Data set [1] addresses VZV capsid (MCP pORF40, SCP pORF23, Tri1 pORF20, Tri2 pORF41) (varicella-zoster virus (P-Oka strain)) (UniProt P09245). The data set is described as follows: cryo-EM structure.
The data set “cryo-EM structure” concerns the molecule itself. The data set is described as follows: cryo-EM structure.

VZV capsid (MCP pORF40, SCP pORF23, Tri1 pORF20, Tri2 pORF41) (varicella-zoster virus (P-Oka strain)), sequence (P09245 whole entry, looked up): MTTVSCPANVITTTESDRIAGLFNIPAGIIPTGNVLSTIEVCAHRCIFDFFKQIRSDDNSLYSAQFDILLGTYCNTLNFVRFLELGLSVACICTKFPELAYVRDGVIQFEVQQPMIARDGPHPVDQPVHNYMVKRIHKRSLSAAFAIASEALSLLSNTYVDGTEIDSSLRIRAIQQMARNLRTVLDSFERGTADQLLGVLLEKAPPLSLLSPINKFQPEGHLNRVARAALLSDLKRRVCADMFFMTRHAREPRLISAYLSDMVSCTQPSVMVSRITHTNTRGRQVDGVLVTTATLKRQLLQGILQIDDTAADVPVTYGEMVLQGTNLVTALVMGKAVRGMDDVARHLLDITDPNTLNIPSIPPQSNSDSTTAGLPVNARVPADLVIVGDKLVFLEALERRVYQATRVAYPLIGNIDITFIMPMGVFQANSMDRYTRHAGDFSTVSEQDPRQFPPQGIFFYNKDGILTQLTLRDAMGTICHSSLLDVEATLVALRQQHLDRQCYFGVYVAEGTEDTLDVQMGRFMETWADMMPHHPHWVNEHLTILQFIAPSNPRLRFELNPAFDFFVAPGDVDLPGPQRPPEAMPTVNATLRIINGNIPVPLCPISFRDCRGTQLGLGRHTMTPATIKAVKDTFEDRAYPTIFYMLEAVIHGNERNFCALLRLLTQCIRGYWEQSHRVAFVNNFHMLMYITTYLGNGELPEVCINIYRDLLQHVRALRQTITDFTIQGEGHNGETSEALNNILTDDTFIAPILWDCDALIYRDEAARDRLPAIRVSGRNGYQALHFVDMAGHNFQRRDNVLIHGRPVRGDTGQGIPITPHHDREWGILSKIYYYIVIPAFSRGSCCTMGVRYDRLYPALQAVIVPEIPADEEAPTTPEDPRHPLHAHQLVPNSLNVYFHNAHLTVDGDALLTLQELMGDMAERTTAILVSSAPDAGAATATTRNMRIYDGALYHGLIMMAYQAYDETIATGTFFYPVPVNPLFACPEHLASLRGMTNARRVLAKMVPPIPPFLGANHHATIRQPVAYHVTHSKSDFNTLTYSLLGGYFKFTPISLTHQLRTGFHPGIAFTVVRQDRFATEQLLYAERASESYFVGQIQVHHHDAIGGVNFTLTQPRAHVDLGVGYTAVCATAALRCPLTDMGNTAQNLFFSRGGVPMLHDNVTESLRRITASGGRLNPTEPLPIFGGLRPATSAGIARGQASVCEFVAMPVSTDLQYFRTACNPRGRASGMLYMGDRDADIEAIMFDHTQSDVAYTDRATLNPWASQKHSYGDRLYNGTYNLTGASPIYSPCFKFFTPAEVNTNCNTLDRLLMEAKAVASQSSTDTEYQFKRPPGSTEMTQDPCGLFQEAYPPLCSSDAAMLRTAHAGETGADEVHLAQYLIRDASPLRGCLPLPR

“VZV capsid-associated tegument complex (CATC)” displayed a percent of pentons bound with CATCs in data set [1] of 50.5%.

B1: VZV small capsid protein (SCP) pORF23 (natural protein)
chain: MTQPASSRVVFDPSNPTTFSVEAIAAYTPVALIRLLNASGPLQPGHRVDIADARSIYTVGAAASAARARANHNANTIRRTAMFAETDPMTWLRPTVGLKRTFNPRIIRPQPPNPSMSLGISGPTILPQKTQSADQSALQQPAALAFSGSSPQHPPPQTTSASVGQQQHVVSGSSGQQPQQGAQSSTVQPTTGSPPAAQGVPQSTPPPTQNTPQGGKGQTLSHTGQSGNASRSRRV
As a reminder, the stoichiometry N is the number of molecules, sites or subunits per partner or assembly. In the case of B1, in “cryo-EM structure”, the “stoichiometry N” value was 6.

Source of the values: article PMC7677223 (Nature microbiology, 2020).
